According to the Immune Epitope Database (IEDB):

Tests used:
HLA-A*24:03 = assay: IEDB peptide-MHC binding, purified MHC/direct/fluorescence; filed as Kd, often an IC50 or EC50 that approximates it; ≥ and ≤ were set here for values at or beyond the usual limits of such assays
HLA-A*24:02 = assay: IEDB peptide-MHC binding, purified MHC/competitive/fluorescence; ≥ and ≤ were set here for values at or beyond the usual limits of such assays
HLA-A*03:01 = assay: IEDB peptide-MHC binding, purified MHC/competitive/radioactivity; filed as Kd, often an IC50 or EC50 that approximates it; ≥ and ≤ were set here for values at or beyond the usual limits of such assays; settings: source organism: Dengue virus 4 Philippines/H241/1956
HLA-A*30:02 = assay: as above
HLA-A*30:01 = assay: as above; settings: source organism: Dengue virus 4 Philippines/H241/1956
HLA-B*15:01 = assay: as above
HLA-A*02:01 = assay: IEDB peptide-MHC binding, purified MHC/competitive/fluorescence; ≥ and ≤ were set here for values at or beyond the usual limits of such assays; settings: source organism: Sudan ebolavirus
HLA-A*01:01 = assay: IEDB peptide-MHC binding, purified MHC/competitive/radioactivity; filed as Kd, often an IC50 or EC50 that approximates it; ≥ and ≤ were set here for values at or beyond the usual limits of such assays; settings: source organism: Dengue virus 3 Sri Lanka/1266/2000
HLA-A*26:01 = assay: as above; settings: source organism: Dengue virus 3 Sri Lanka/1266/2000
HLA-B*07:02 = assay: IEDB peptide-MHC binding, purified MHC/direct/fluorescence; filed as Kd, often an IC50 or EC50 that approximates it; ≥ and ≤ were set here for values at or beyond the usual limits of such assays; settings: source organism: Orthohantavirus dobravaense
HLA-B*51:01 [1] = assay: IEDB peptide-MHC binding, purified MHC/competitive/fluorescence; filed as Kd, often an IC50 or EC50 that approximates it; ≥ and ≤ were set here for values at or beyond the usual limits of such assays; settings: source organism: Kurkino virus
HLA-B*51:01 [2] = assay: IEDB peptide-MHC binding, purified MHC/competitive/radioactivity; filed as Kd, often an IC50 or EC50 that approximates it; ≥ and ≤ were set here for values at or beyond the usual limits of such assays
HLA-B*53:01 = assay: as above
HLA-B*08:01 = assay: IEDB peptide-MHC binding, purified MHC/direct/fluorescence; filed as Kd, often an IC50 or EC50 that approximates it; ≥ and ≤ were set here for values at or beyond the usual limits of such assays; settings: source organism: Cowpox virus
HLA-A*32:01 = assay: IEDB peptide-MHC binding, purified MHC/competitive/radioactivity; filed as Kd, often an IC50 or EC50 that approximates it; ≥ and ≤ were set here for values at or beyond the usual limits of such assays; settings: source organism: Vaccinia virus Copenhagen
[3] = source organism: Dengue virus 4 Philippines/H241/1956
[4] = source organism: Sudan ebolavirus
[5] = source organism: Dengue virus 3 Sri Lanka/1266/2000
[6] = source organism: Dengue virus 2 Jamaica/1409/1983

Q: How did the Kd (HLA-A*24:03; source organism: Mycobacterium tuberculosis) turn out when IYTLEYDGF was run?
A: 74.8 nM

Q: For KGRVGRVNP, which IC50 (HLA-A*24:02; source organism: Variola virus) is on record?
A: 9760 nM

Q: What does the source list for KLRIKGMSY?
A: Kd (HLA-A*03:01): 8.36 nM; Kd (HLA-A*30:02; [3]): 79.6 nM; Kd (HLA-A*30:01): 18.6 nM; Kd (HLA-B*15:01; [3]): 38.5 nM

Q: Which Kd (HLA-A*30:02; [3]) does the source give for KQITNELNY here?
A: 9.99 nM

Q: What about the Kd (HLA-B*15:01; [3]) of the same sequence?
A: 7.56 nM

Q: With KSSFFVWVI as the sequence, how does the IC50 (HLA-A*24:02; [4]) read?
A: 69.4 nM

Q: What about the IC50 (HLA-A*02:01) of the same sequence?
A: 274 nM

Q: With LLIVSGIFPY as the sequence, how does the Kd (HLA-A*01:01) read?
A: 7500 nM

Q: And the Kd (HLA-A*30:02; [5])?
A: ≥ 60000 nM

Q: What about the Kd (HLA-A*26:01) of the same sequence?
A: 11200 nM

Q: What about the Kd (HLA-B*15:01; [5]) of the same sequence?
A: 2.26 nM

Q: Which Kd (HLA-B*15:01; source organism: Dengue virus 1 Brazil/97-11/1997) does the source give for LMTGTLAVF here?
A: 0.4 nM

Q: Which Kd (HLA-B*07:02) does the source give for LPTRCRLEI here?
A: 3.9 nM

Q: And the Kd (HLA-B*51:01 [1])?
A: ≥ 20000 nM

Q: LPTYLSSRA was tested. Which Kd (HLA-B*51:01 [2]; [3]) did it give?
A: ≥ 23700 nM

Q: With MLNTYGEGF as the sequence, how does the Kd (HLA-B*15:01; source organism: Vaccinia virus WR) read?
A: 2.25 nM

Q: Which results are given for MPSVIEKMET?
A: Kd (HLA-B*53:01; [6]): 1610 nM; Kd (HLA-B*51:01 [2]; [6]): 9480 nM

Q: With MSRRRIYVL as the sequence, how does the Kd (HLA-B*08:01) read?
A: 6 nM

Q: Which results are given for MVYKLVLLF?
A: Kd (HLA-A*32:01): 330 nM; Kd (HLA-B*15:01; source organism: Vaccinia virus Copenhagen): 70.5 nM

Q: How did the Kd (HLA-A*24:03; source organism: Rhodococcus erythropolis) turn out when MYLRTIYDL was run?
A: 0.6 nM

Q: Which Kd (HLA-B*53:01; [6]) does the source give for NAVILQNAW here?
A: 80.6 nM

Q: For NPTAIFLTT, which Kd (HLA-B*53:01; [6]) is on record?
A: 1680 nM

Q: For NPTVDGIMTI, which Kd (HLA-B*53:01; source organism: Dengue virus 3 Martinique/1243/1999) is on record?
A: 214 nM

Q: Which Kd (HLA-B*51:01 [2]; [3]) does the source give for PPFGDSYIV here?
A: ≥ 23100 nM

Q: With PPVSDLKYSW as the sequence, how does the Kd (HLA-B*53:01; source organism: Dengue virus 4 Dominica/814669/1981) read?
A: 1580 nM

Q: PYFGPGAEG was tested. Which IC50 (HLA-A*24:02; [4]) did it give?
A: ≥ 114000 nM

Q: QHSTTLFKI was tested. Which IC50 (HLA-A*24:02; [4]) did it give?
A: 2120 nM

Q: What about the IC50 (HLA-A*02:01) of the same sequence?
A: ≥ 80000 nM
